From patent US20220106400A1 (published 2022)
Values belong to the binder of their own block, whether it stands above or below them.

Molecular target: T1, human GITR on cells (human, UniProt Q9Y5U5 26-241)
T1 chain: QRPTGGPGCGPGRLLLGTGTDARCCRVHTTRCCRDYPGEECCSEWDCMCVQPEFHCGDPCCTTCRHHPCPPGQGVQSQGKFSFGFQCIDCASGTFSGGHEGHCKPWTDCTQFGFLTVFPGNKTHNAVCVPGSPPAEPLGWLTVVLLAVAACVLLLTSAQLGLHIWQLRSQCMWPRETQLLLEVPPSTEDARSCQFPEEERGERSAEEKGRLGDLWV
Assay: FACS binding to anti-CD3/CD28-activated human CD4 T cells

EC50: 0.277 nM
B1: anti-GITR-IgG2 (antibody)
heavy: QVQLVESGGGVVQPGRSLRLSCAASGFTFSSYGMHWVRQAPGKGLEWVAVIWYEGSNKYYADSVKGRFTISRDNSKNTLYLQMNSLRAEDTAVYYCARGGSMVRGDYYYGMDVWGQGTTVTVSSASTKGPSVFPLAPCSRSTSESTAALGCLVKDYFPEPVTVSWNSGALTSGVHTFPAVLQSSGLYSLSSVVTVPSSNFGTQTYTCNVDHKPSNTKVDKTVERKCCVECPPCPAPPVAGPSVFLFPPKPKDTLMISRTPEVTCVVVDVSHEDPEVQFNWYVDGVEVHNAKTKPREEQFNSTFRVVSVLTVVHQDWLNGKEYKCKVSNKGLPAPIEKTISKTKGQPREPQVYTLPPSREEMTKNQVSLTCLVKGFYPSDIAVEWESNGQPENNYKTTPPMLDSDGSFFLYSKLTVDKSRWQQGNVFSCSVMHEALHNHYTQKSLSLSPGK
light: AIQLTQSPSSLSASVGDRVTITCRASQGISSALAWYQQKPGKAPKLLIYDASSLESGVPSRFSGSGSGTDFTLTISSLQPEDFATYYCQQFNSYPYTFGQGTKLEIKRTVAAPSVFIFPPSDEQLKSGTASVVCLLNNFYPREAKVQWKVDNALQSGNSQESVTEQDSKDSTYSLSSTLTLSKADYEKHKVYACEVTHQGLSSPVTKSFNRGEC

EC50: 0.163 nM
B2: anti-GITR-IgG2-IgG1.1 (antibody)
heavy: QVQLVESGGGVVQPGRSLRLSCAASGFTFSSYGMHWVRQAPGKGLEWVAVIWYEGSNKYYADSVKGRFTISRDNSKNTLYLQMNSLRAEDTAVYYCARGGSMVRGDYYYGMDVWGQGTTVTVSSASTKGPSVFPLAPCSRSTSESTAALGCLVKDYFPEPVTVSWNSGALTSGVHTFPAVLQSSGLYSLSSVVTVPSSNFGTQTYTCNVDHKPSNTKVDKTVERKCCVECPPCPAPPVAGPSVFLFPPKPKDTLMISRTPEVTCVVVDVSHEDPEVKFNWYVDGVEVHNAKTKPREEQYNSTYRVVSVLTVLHQDWLNGKEYKCKVSNKALPSSIEKTISKAKGQPREPQVYTLPPSREEMTKNQVSLTCLVKGFYPSDIAVEWESNGQPENNYKTTPPVLDSDGSFFLYSKLTVDKSRWQQGNVFSCSVMHEALHNHYTQKSLSLSPG
light: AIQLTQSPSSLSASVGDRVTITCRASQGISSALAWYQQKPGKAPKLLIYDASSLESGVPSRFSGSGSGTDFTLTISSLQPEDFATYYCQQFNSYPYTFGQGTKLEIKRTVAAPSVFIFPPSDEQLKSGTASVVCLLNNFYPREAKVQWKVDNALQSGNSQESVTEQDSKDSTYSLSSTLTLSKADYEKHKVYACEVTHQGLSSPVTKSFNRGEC
